One block for each molecule: values may come before it.
Columns and labels:
[1] = target: soluble human C3b (human) (UniProt P01024)
human C4b (human) [2] = target: T1, human C4b (human) (UniProt P0C0L4)
T1 sequence: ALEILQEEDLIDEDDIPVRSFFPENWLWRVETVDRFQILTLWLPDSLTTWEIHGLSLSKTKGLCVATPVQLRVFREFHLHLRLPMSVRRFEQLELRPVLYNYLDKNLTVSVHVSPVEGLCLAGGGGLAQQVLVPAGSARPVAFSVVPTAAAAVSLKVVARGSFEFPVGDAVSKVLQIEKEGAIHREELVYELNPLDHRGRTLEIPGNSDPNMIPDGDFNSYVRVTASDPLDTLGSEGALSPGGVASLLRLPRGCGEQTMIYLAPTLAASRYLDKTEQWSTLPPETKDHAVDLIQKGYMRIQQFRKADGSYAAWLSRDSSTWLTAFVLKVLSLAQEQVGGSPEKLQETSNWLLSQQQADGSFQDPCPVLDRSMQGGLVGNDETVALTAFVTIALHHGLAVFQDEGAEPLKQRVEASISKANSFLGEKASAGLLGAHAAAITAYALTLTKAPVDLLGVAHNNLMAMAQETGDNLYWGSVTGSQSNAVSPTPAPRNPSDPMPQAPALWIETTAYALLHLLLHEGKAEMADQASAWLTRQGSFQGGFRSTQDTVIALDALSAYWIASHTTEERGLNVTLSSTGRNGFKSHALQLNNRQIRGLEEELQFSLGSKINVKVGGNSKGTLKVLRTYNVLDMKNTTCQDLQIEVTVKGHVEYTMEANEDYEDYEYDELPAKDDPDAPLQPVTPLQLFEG

[3] = target: soluble human C3b (human) (UniProt P01024); remark: listed apart in the source
human C4b (human) [4] = target: T2, human C4b (human) (UniProt P0C0L5)
T2 sequence: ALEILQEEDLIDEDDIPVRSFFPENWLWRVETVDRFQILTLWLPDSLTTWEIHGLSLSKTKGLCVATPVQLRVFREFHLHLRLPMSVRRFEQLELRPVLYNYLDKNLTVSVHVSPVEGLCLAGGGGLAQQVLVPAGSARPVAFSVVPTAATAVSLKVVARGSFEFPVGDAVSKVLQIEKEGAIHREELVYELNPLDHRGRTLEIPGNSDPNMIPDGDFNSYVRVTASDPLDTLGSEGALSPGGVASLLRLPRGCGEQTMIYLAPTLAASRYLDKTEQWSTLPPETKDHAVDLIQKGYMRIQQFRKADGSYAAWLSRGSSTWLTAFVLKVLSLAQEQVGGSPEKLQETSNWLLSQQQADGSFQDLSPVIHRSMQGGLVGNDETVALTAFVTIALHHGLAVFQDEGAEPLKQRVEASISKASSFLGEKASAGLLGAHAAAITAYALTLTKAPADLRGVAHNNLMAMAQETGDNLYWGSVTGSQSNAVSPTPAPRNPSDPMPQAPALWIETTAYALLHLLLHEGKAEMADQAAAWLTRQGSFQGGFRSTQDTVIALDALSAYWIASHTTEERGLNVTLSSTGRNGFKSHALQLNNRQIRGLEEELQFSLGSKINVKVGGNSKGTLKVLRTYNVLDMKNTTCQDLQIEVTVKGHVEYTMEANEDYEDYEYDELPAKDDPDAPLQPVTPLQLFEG

Molecule: CFI-HSA variant K504H (enzyme)
iC3b EC50 [1]: 0.0536 µM
C4c EC50 (nM) (human C4b (human) [2]): 229 nM
iC3b Screen Ref Fold (fold vs CFI-HSA wild type) [3]: 0.54
C4b Screen Ref Fold (fold vs CFI-HSA wild type) (human C4b (human) [4]): 3.84

Molecule: CFI-HSA variant Y408N (enzyme)
iC3b EC50 [1]: 0.0642 µM
C4c EC50 (nM) (human C4b (human) [2]): 710 nM
iC3b Screen Ref Fold (fold vs CFI-HSA wild type) [3]: 0.51
C4b Screen Ref Fold (fold vs CFI-HSA wild type) (human C4b (human) [4]): 0.09

Molecule: CFI-HSA variant N476Q (enzyme)
iC3b EC50 [1]: 0.0157 µM
C4c EC50 (nM) (human C4b (human) [2]): > 1000 nM
iC3b Screen Ref Fold (fold vs CFI-HSA wild type) [3]: 1.03
C4b Screen Ref Fold (fold vs CFI-HSA wild type) (human C4b (human) [4]): 0.85

Molecule: CFI-HSA variant K504R (enzyme)
iC3b EC50 [1]: 0.0337 µM
C4c EC50 (nM) (human C4b (human) [2]): 439 nM
iC3b Screen Ref Fold (fold vs CFI-HSA wild type) [3]: 0.89
C4b Screen Ref Fold (fold vs CFI-HSA wild type) (human C4b (human) [4]): 0.51

Molecule: CFI-HSA variant Q467R (enzyme)
iC3b EC50 [1]: 0.0271 µM
C4c EC50 (nM) (human C4b (human) [2]): 399 nM
iC3b Screen Ref Fold (fold vs CFI-HSA wild type) [3]: 0.59
C4b Screen Ref Fold (fold vs CFI-HSA wild type) (human C4b (human) [4]): 0.48

Molecule: CFI-HSA variant Y408H (enzyme)
iC3b EC50 [1]: 0.0433 µM
C4c EC50 (nM) (human C4b (human) [2]): > 1000 nM
iC3b Screen Ref Fold (fold vs CFI-HSA wild type) [3]: 0.82
C4b Screen Ref Fold (fold vs CFI-HSA wild type) (human C4b (human) [4]): 0.05

Molecule: CFI-HSA variant E457D (enzyme)
iC3b EC50 [1]: 0.0123 µM
C4c EC50 (nM) (human C4b (human) [2]): 162 nM
iC3b Screen Ref Fold (fold vs CFI-HSA wild type) [3]: 1.21
C4b Screen Ref Fold (fold vs CFI-HSA wild type) (human C4b (human) [4]): 4.7

The next lines start with the values.

iC3b EC50 [1]: 0.0041 µM
C4c EC50 (human C4b (human) [2]): 0.0433 µM
iC3b Screen Ref Fold (fold of CFI-HSA wild type) [3]: 1.5
C4b Screen Ref Fold (fold of CFI-HSA wild type) (human C4b (human) [4]): 5.33
Molecule: CFI-HSA variant E457G; D425K (enzyme)

iC3b EC50 [1]: 0.0047 µM
C4c EC50 (human C4b (human) [2]): 0.0135 µM
iC3b Screen Ref Fold (fold of CFI-HSA wild type) [3]: 0.58
C4b Screen Ref Fold (fold of CFI-HSA wild type) (human C4b (human) [4]): 5.1
Molecule: CFI-HSA variant Y408L; E457G; N531G; D425K (enzyme)

iC3b EC50 [1]: 0.0052 µM
C4c EC50 (human C4b (human) [2]): 0.0465 µM
iC3b Screen Ref Fold (fold of CFI-HSA wild type) [3]: 0.04
C4b Screen Ref Fold (fold of CFI-HSA wild type) (human C4b (human) [4]): 2.13
Molecule: CFI-HSA variant Y408L; E457G; P535G; D425K (enzyme)

iC3b EC50 [1]: 0.0222 µM
C4c EC50 (nM) (human C4b (human) [2]): 222 nM
iC3b Screen Ref Fold (fold vs CFI-HSA wild type) [3]: 1.28
C4b Screen Ref Fold (fold vs CFI-HSA wild type) (human C4b (human) [4]): 4.31
Molecule: CFI-HSA variant E457G; E461G (enzyme)

iC3b EC50 [1]: 0.0319 µM
C4c EC50 (nM) (human C4b (human) [2]): 53.1 nM
iC3b Screen Ref Fold (fold vs CFI-HSA wild type) [3]: 0.04
C4b Screen Ref Fold (fold vs CFI-HSA wild type) (human C4b (human) [4]): 5.25
Molecule: WT; GGSSGG (SEQ ID NO: 6); CR1(ccp15-17) (enzyme)

iC3b EC50 [1]: 0.0218 µM
C4c EC50 (nM) (human C4b (human) [2]): > 1000 nM
iC3b Screen Ref Fold (fold vs CFI-HSA wild type) [3]: 0.98
C4b Screen Ref Fold (fold vs CFI-HSA wild type) (human C4b (human) [4]): 0.08
Molecule: CFI-HSA variant E530F (enzyme)

iC3b EC50 [1]: 0.0071 µM
C4c EC50 (human C4b (human) [2]): 0.0169 µM
iC3b Screen Ref Fold (fold of CFI-HSA wild type) [3]: 0.96
C4b Screen Ref Fold (fold of CFI-HSA wild type) (human C4b (human) [4]): 6.34
Molecule: CFI-HSA variant E457G; N531G; K534Q (enzyme)

iC3b EC50 [1]: 0.0049 µM
C4c EC50 (nM) (human C4b (human) [2]): 26.1 nM
iC3b Screen Ref Fold (fold vs CFI-HSA wild type) [3]: 1.4
C4b Screen Ref Fold (fold vs CFI-HSA wild type) (human C4b (human) [4]): 4.93
Molecule: CFI-HSA variant D425R; Y408L; N531G; E457G; E461Q; R462K; F464Y (enzyme)

iC3b EC50 [1]: > 0.5 µM
C4c EC50 (nM) (human C4b (human) [2]): 54 nM
iC3b Screen Ref Fold (fold vs CFI-HSA wild type) [3]: 0.04
C4b Screen Ref Fold (fold vs CFI-HSA wild type) (human C4b (human) [4]): 6.24
B1: WT mouse CFI (enzyme)
chain: RSPSASDLPQEELVDQKCLLQKYTHRSCNKVFCQPWQRCIEGTCICKLPYQCPRAGTPVCAMNGRSYPTYCHQKSFECLHPEIKFSHNGTCAAEGKFNVSLIYGRTKTEGLVQVKLVDQDERMFICKNSWSMAEANVACVDLGFPLGVRDIQGSFNISGNLHINDTECLHVHCRGVETSLAECAFTKRRTELSNGLAGVVCYKQDADFPTSLSFQCVNGKHIPQEKACNGVNDCGDQSDELCCKGCRGNASLCKSGVCIPDQYKCNGEVDCITGEDESRCEEDRQQNIPKGLARSAQGEAEIETEETEMLTPGMDNERKRIKSLLPKLSCGVKRNTHTRRKRVIGGKPANVGDYPWQVAIKDGQRITCGGIYIGGCWILTAAHCVRPSRAHSYQVWTALLDWLKPNSQLGIQTVKRVIVHEKYNGATFQNDIALIEMKMHTGKKECELPNSVPACVPWSPYLFQPNDRCIISGWGRGKDNQKVYSLRWGEVDLIGNCSQFYPDRYYEKEMQCAGTRDGSIDACKGDSGGPLVCEDINNVTYVWGIVSWGENCGKPEFPGVYTRVANYFDWISYHVGRSLVSQHNV

Source: US20230038638A1, “COMPLEMENT FACTOR I-RELATED COMPOSITIONS AND METHODS” (published 2023)
